Measurements taken from publication PMC3985873.
Where a chain is given by its changes, count along the chain named. Read-outs that look alike come from different tables or passages of the source.

Columns and labels:
Assay in all cases: smFRET
MutS-E41A [1] = target: T1, MutS-E41A (Thermus aquaticus, UniProt Q56215 1-811, E41A)
T1 sequence: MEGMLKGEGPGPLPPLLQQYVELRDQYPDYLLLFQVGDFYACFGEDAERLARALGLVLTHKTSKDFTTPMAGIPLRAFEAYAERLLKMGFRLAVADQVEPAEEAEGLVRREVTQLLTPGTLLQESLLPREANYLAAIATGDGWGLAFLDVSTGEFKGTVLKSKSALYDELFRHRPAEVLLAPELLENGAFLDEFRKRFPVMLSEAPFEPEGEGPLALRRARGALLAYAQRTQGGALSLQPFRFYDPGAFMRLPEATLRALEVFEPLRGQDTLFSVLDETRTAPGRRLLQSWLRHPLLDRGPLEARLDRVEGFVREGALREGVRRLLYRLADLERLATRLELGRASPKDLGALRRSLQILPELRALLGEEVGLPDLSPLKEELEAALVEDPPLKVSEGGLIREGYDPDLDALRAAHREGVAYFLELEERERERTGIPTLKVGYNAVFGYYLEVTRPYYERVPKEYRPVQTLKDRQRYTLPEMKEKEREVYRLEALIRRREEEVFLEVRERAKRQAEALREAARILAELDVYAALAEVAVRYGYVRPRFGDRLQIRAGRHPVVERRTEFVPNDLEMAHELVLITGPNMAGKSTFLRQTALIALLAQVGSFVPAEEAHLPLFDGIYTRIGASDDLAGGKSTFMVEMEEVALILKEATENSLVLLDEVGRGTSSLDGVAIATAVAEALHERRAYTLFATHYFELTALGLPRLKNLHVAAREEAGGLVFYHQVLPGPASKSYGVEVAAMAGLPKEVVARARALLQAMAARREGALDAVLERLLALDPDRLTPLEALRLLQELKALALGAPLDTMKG

MutS [2] = target: T2, MutS (Thermus aquaticus, UniProt Q56215 1-811)
T2 sequence: T1 sequence with A41E

MutS-E41A [3] = target: T1, MutS-E41A; remark: listed apart in the source
MutS [4] = target: T2, MutS; remark: listed apart in the source

B1: GT mismatch DNA (A1/B1/C1-GT) (dsDNA)
DNA 1: TGTCGGGGCTGGCTTAAGGTGTGAAATACCTCATCTCGAGCGTGCCGATA
DNA 2: TATCGGCACGTTCGAGATG
DNA 3: AGGTATTTCACACCTTAAGCCAGCCCCGACA
B1: binds (MutS-E41A [1]); binds (MutS [2]).

B2: T-bulge DNA (A1/B1/C2-T-bulge) (dsDNA)
DNA 1: B1 DNA 1
DNA 2: TATCGGCACGTCTCGAGATG
DNA 3: B1 DNA 3
B2: binds (MutS-E41A [3]); binds (MutS [4]).
